Data reported in PMC8967028.

Assays:
Assay in all cases: SPR; Biacore T200; […], single cycle kinetics, […]; 25°C; PBS, 0.05% Tween 20, 3.4 mM EDTA; 1:1 binding model; triplicate; […]
[1] = target: SARS-CoV-2 B.1.351 (Beta) spike (S) receptor binding domain (SARS-CoV-2)
[2] = target: SARS-CoV-2 B.1.617.2 (Delta) spike (S) receptor binding domain (SARS-CoV-2)
[3] = target: SARS-CoV-2 B.1.1.529 (Omicron) spike (S) receptor binding domain (SARS-CoV-2)

VHH-72-Fc L97W (Fc fusion) was tested, and the koff [1] was 0.0079 s⁻¹ and the koff [2] was 0.00081 s⁻¹.

With VHH-72-Fc L97W,T99V (Fc fusion) the koff [1] was 0.00056 s⁻¹, the koff [3] was 0.061 s⁻¹ and the koff [2] was 0.00016 s⁻¹.

For VHH-72-Fc S56M (Fc fusion), the koff [1] was 0.013 s⁻¹ and the koff [2] was 0.001 s⁻¹.

Work on VHH-72-Fc S56M,L97W (Fc fusion) yielded a koff [1] of 0.0025 s⁻¹, a koff [3] of 0.7 s⁻¹ and a koff [2] of 0.00039 s⁻¹.

For VHH-72-Fc S56M,L97W,T99V (Fc fusion), the koff [1] was 0.00039 s⁻¹, the koff [3] was 0.007 s⁻¹ and the koff [2] was 0.00023 s⁻¹.

Work on VHH-72-Fc S56M,T99V (Fc fusion) yielded a koff [1] of 0.00068 s⁻¹, a koff [3] of 0.0252 s⁻¹ and a koff [2] of 0.00035 s⁻¹.

For VHH-72-Fc T99V (Fc fusion), the koff [1] was 0.0077 s⁻¹ and the koff [2] was 0.00062 s⁻¹.

parental VHH-72-Fc (Fc fusion) was tested, and the koff [1] was 0.029 s⁻¹ and the koff [2] was 0.0051 s⁻¹.
